Laboratory results published in patent US20150018228A1, “ENZYME DETECTION BY MICROFLUIDICS” (priority 2011, published 2015).

What was measured:
Assay type in all cases: biochemical, Plasmodium falciparum
[1] = test system: pfTopI; assay: Cleavage-ligation assay with radio-labeled DNA substrates in absence or presence of camptothecin; details: 60 μM CPT, duplex OL62/OL63, 20 min at 37° C.
Method: Detection of PfTopI activity using radio-labeled DNA substrates: DNA cleavage reactions were carried out by incubating 20 nM duplex OL37/OL56 or OL62/OL63 with 500 fmol of pfTopI or hTopI in the absence or presence of 60 μM CPT for 20 min at 37° C. in 10 mM Tris (pH 7.5), 5 mM MgCl2, and 5 mM CaCl2 in a final volume of 20 μl. After the 20 min incubation, reactions were stopped with 0.5% (w/v) SDS. Samples were subjected to ethanol precipitation, resuspended in 10 μl of 1 mg/ml trypsin and incubated at 37° C. for 30 min. Reaction products were analyzed by denaturing polyacrylamide gel electrophoresis following standard procedures, and radioactive bands were visualized by PhosphorImaging.

[2] = test system: pfTopI; assay: RCA-based biosensor (REEAD) circularization of oligonucleotide substrates by purified pfTopI
Method: As shown in FIG. 1A and FIG. 4, in contrast to its human counterpart, pfTopI is able to cleave close to DNA ends with high efficiency. […] To address this possibility, purified pfTopI was incubated with each of the substrates Su2-Su6 (FIG. 1B) and the products analysed using the RCA based detection system as schematically outlined in FIG. 1C. The sequence of the substrates Su4, Su5, and Su6 was modified to match the sequence that was cleaved with high efficiency in substrate XX.
Based on this, five different oligonucleotides with potential of being circularized specifically by pfTopI cleavage-ligation were designed. These oligonucleotides (PfTop1(S1-S5)) all folded into a hairpin structure containing a probe- and a primer-annealing sequence in the single-stranded loop and a potential pfTopI recognizable sequence at the end of the double-stranded stem region (FIG. 1b). […] To allow comparative quantification of signals generated in different reactions, a known concentration of control-circle with a unique probe-annealing sequence was added to the reaction mixtures before RCA and resulting RCPs visualized using a green-fluorescent probe. […]
(§1) The 5′-amine-conjugated primer was coupled to CodeLink Activated Slides (SurModics) according to the manufacturer's description. […] Quantification of pfTopI specific signals was performed as previously described^1.

[3] = test system: pfTopI; assay: REEAD with HRP-mediated colorimetric readout, purified pfTopI; details: purified pfTopI circularizing S1
Description: To investigate if the Plasmodium-specific REEAD could be adapted to simple colorimetric readout, suitable for low-resource settings without compromising sensitivity, an additional enzymatic step was introduced to the assay by coupling streptavidin-fused HRP to biotinylated RCPs as described by Yan, J. et al. An on-nanoparticle rolling-circle amplification platform for ultrasensitive protein detection in biological fluids. Small 6, 2520-2525 (2010). HRP oxidizes colorless tetramethylbenzidine to a blue-colored form, detectable to the naked eye or by spectrophotometric measurements. This, of course, is at the expense of the possibility of multiplexing since RCPs originating from different circles cannot be distinguished. […] This, however, imposed the advantage of preventing competition between S(TopI) and pfTopI(S1) for pfTopI, as discussed above. The two readout formats were compared by reacting pfTopI(S1) with increasing dilutions of extracts from blood sample #2 followed by microscopic visualization of RCPs or by spectrophotometric measurement of HRP substrate conversion. As evident from FIG. 23 colorimetric readout increased sensitivity of REEAD by a factor two compared to microscopic readout. […]

[4] = test system: pfTopI; assay: REEAD in nuclear extract from HEK293T cells with or without spike-in pfTopI; details: signals only with spike-in pfTopI
Method: The use of Su2 for detecting pfTopI activity in human cell extracts in the RCA-based biosensor setup was also verified. […] As a control for successful RCA and probe annealing a circularized control circle was added to each sample before annealing to the primer coated slide. […] As expected, comparative levels of green and blue spots corresponding to RCPs from […] and control circles, respectively, could be observed in both samples (FIG. 2A).
The specificity of pfTopI(S1) for pfTopI in crude biological samples was addressed using nuclear extract from human HEK293T cells with or without spike-in pfTopI as a model for Plasmodium infection. […] Consequently, green signals observed in FIG. 22b, right panel, originated from hTopI and pfTopI activity in combination where pfTopI(S1) and S(TopI) competed for reaction by pfTopI at the expense of sensitivity.
Human embryonic kidney HEK293T cells were cultured in Dulbecco's Modified Eagle Medium (GIBCO) supplemented with 10% fetal bovine serum (FBS) (GIBCO), 100 units/mL penicillin and […] streptomycin (Invitrogen). Cells were incubated in a humidified incubator (5% CO2/95% air atmosphere at 37° C.). […]
as §1

CC[C@@]1(O)C(=O)OCc2c1cc1n(c2=O)Cc2cc3ccccc3nc2-1 [camptothecin]
effect on ligation product formation by pfTopI [1]: ligation product is only observed upon incubation of the substrate with pfTopI in the absence of camptothecin

B1: S(TopI): self-folding oligonucleotide substrate for human topoisomerase I, SEQ ID NO: 25 (nucleic acid)
chain: AGAAAAATTTTTAAAAAAACTGTGAAGATCGCTTATTTTTTTAAAAATTTTTCTAAGTCTTTTAGATCCCTCAATGCTGCTGCTGTACTACGATCTAAAAGACTTAGA
modifications: listed as DNA, chemistry not fully specified
circularization (conversion to closed circles) by pfTopI ([2]; purified recombinant pfTopI, RCA and fluorescent probe readout): circularizes S(TopI)

B2: pfTopI(S1): hairpin oligonucleotide sensor circularized by pfTopI, SEQ ID NO: 8 (nucleic acid)
chain: TCTAGAAAGTATAGGAACTTCGAACGACTCAGAATGACTGTGAAGATCGCTTATCCTCAATGCACATGTTTGGCTCCCATTCTGAGTCGTTCGAAGTTCCTATACTTT
modifications: chemistry not fully specified
circularization efficiency by pfTopI, substrate signals relative to control circle signals ([2]; purified pfTopI, compared among the tested substrates): the most efficient sensor of pfTopI
detection of pfTopI, spectrophotometric measurement of HRP reaction ([3]; FIG. 27): 2 aM
detection of pfTopI, direct visual detection of HRP reaction ([3]; data not shown): 200 aM
specificity for pfTopI in crude human cell extract [4]: specificity of pfTopI(S1) for pfTopI even on a background of human nucleus content
